Data published in paper PMC4773759 (Scientific Reports, 2016).
Entries after “also recorded” stand apart in the source; their conditions may differ.

How the values were obtained:
rhECE-1 [1] = biological target: T1, rhECE-1 (Homo sapiens, UniProt P42892); assay: ECE-1 activity, bradykinin-based QFS assay; type: biochemical; conditions: 10 ng/μL, rhECE-1 0.05 ng/μL, 1 h pre-incubation 37 °C, QFS 40 μM; comparisons with K49-P1-20 or enzyme alone
T1 construct: purchased R & D systems
T1 sequence (P42892 1-770): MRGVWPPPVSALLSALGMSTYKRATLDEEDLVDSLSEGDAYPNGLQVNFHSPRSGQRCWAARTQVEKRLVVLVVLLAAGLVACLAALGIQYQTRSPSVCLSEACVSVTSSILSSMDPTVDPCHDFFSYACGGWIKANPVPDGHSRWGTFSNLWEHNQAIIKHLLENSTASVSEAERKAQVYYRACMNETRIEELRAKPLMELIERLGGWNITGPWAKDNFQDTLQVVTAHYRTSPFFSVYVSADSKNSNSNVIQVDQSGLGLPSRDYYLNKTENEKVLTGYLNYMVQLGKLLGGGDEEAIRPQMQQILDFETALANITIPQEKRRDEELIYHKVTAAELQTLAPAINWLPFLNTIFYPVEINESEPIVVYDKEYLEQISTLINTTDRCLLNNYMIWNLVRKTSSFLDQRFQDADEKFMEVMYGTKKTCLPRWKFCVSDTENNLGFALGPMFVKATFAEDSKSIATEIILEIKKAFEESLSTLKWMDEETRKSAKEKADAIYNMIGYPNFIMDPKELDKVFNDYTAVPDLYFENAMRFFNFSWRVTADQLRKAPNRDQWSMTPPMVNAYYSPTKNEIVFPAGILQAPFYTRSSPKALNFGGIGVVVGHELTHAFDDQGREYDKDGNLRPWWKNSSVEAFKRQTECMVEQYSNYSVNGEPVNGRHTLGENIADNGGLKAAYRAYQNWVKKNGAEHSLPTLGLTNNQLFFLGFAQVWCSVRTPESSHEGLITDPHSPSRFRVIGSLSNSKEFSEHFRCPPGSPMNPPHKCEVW
Procedure: Enzyme activities were measured using a previously described bradykinin-based quenched fluorescent substrate (QFS) assay. Briefly, rhECE-1 or NEP (0.05 ng/μL) was incubated with ECE-1 buffer for 1 h at 37 °C. Where indicated, venom, B. asper myotoxin II or relevant synthetic peptide (10 ng/μL) was added to the reaction mixture and pre-incubated (1 h at 37 °C) with rhECE-1 or rhNEP prior to the addition of substrate ((7-methoxycoumarin-4-yl)acetyl-Arg-Pro-Pro-Gly-Phe-Ser-Ala-Phe-Lys(2, 4-dinitrophenyl); 40 μM final). The specificity of ECE-1 and NEP mediated cleavage was confirmed using the inhibitors CGS35066 (500 nM) and thiorphan (10 µM).
Increase in fluorescence over time (excitation and emission wavelengths of 320 and 405 nm respectively) was taken as evidence of enzyme activity. The specific activity for each enzyme was calculated using a standard curve of known 7-methoxycoumarin concentrations. Enzyme alone (rhECE-1, rhNEP, rhACE-2 and rhIDE) was used as a control in all studies examining the effect of K49-P1-20 on enzyme activity.
Non-linear regression analysis in GraphPad Prism software (version 6.04; Michaelis Menton equation) was used to calculate the enzyme kinetic parameters (Vmax and Km). In all enzyme assays the amount of substrate cleaved over 80 min was determined. Where indicated, enzyme activity in the presence of K49-P1-20 was expressed as a % of the respective control. The enzyme kinetic parameters were determined based on the rate of substrate cleavage.

trypsin = trypsin mediated cleavage of K49-P1-20
rhECE-1 [2] = biological target: T1, rhECE-1; assay: Cleavage of endogenous Aβ42 in cerebrospinal fluid by activated ECE-1 (ELISA); type: biochemical; conditions: CGS35066 500 nM, rhECE-1 0.04 ng/μL, K49-P1-20 300 ng/μL, 4 h
Procedure: Aβ42 levels were measured using a commercially available Human Aβ42 ELISA kit (Life technologies), according to the manufacturer’s instructions. rhECE-1 (0.04 ng/μL) alone, rhECE + K49-P1-20 (300 ng/μL) or rhECE + K49-P1-20 + CGS35066 (500 nM) was incubated at 37 °C for 1 hr. Cerebrospinal fluid (diluted 1:10 in assay buffer) from patients with Alzheimer’s disease was added to each reaction mixture. The final volume of cerebrospinal fluid added was kept to 1/10th the final volume of reaction mixture, which was adjusted using ECE-1 buffer. Aliquots of equal volume were taken at 0 and 4 h, snap frozen in dry ice and stored at −80 °C until analysed by ELISA. The amount of Aβ42 remaining after 4 h was expressed as a % of initial.

Row | Compound | Stimulation of ECE-1 activity (in words) (rhECE-1 [1]) | also measured
1 | B. asper myotoxin II | ECE-1 stimulation | –
2 | K49-P9-34: synthetic peptide from the N-terminal region of B. asper myotoxin II | significantly less | –
3 | K49-P1-34: synthetic peptide corresponding to the N-terminal region of B. asper myotoxin II | mimicked the stimulator effects; also recorded: No significant difference | –
4 | SLFELGKMILQETGKNPAKS | – | cleaved bond (trypsin): K7-M8
5 | O=C(O)C(Cc1ccc2c(c1)oc1ccccc12)NCP(=O)(O)O (centres unmarked) [CGS35066] | – | Effect on the Aβ42 decrease by ECE-1 + K49-P1-20 in cerebrospinal fluid (rhECE-1 [2]): blocked
